In US20210388087A1 (Chugai, published 2021):

B1: CE115HA000/GLS3000 N28E (antibody, IgG1, name in Kabat numbering, V domains shown)
VH: QVQLVESGGGVVQPGRSLRLSCAASGFTFSNAWMHWVRQAPGKGLEWVAQIKAKSNNYATYYAESVKGRFTISRDDSKNSLYLQMNSLKTEDTAVYYCRYVHYGAYYGVDAWGQGTTVTVSS
VL: DIVMTQSPLSLPVTPGEPASISCRSSQSLVHSERNTYLHWYQQKPGQAPRLLIYKVSNRFSGVPDRFSGSGSGTDFTLKISRVEAEDVGVYYCGQGTQVPYTFGQGTKLEIK
notes: one-arm IgG1
B2: CE115HA000/GLS3000 N28F (antibody, IgG1, name in Kabat numbering, V domains shown)
VH: QVQLVESGGGVVQPGRSLRLSCAASGFTFSNAWMHWVRQAPGKGLEWVAQIKAKSNNYATYYAESVKGRFTISRDDSKNSLYLQMNSLKTEDTAVYYCRYVHYGAYYGVDAWGQGTTVTVSS
VL: DIVMTQSPLSLPVTPGEPASISCRSSQSLVHSFRNTYLHWYQQKPGQAPRLLIYKVSNRFSGVPDRFSGSGSGTDFTLKISRVEAEDVGVYYCGQGTQVPYTFGQGTKLEIK
notes: one-arm IgG1
B3: CE115HA000/GLS3000 N28L (antibody, IgG1, name in Kabat numbering, V domains shown)
VH: QVQLVESGGGVVQPGRSLRLSCAASGFTFSNAWMHWVRQAPGKGLEWVAQIKAKSNNYATYYAESVKGRFTISRDDSKNSLYLQMNSLKTEDTAVYYCRYVHYGAYYGVDAWGQGTTVTVSS
VL: DIVMTQSPLSLPVTPGEPASISCRSSQSLVHSLRNTYLHWYQQKPGQAPRLLIYKVSNRFSGVPDRFSGSGSGTDFTLKISRVEAEDVGVYYCGQGTQVPYTFGQGTKLEIK
notes: one-arm IgG1
B4: CE115HA000/GLS3000 N28G (antibody, IgG1, name in Kabat numbering, V domains shown)
VH: QVQLVESGGGVVQPGRSLRLSCAASGFTFSNAWMHWVRQAPGKGLEWVAQIKAKSNNYATYYAESVKGRFTISRDDSKNSLYLQMNSLKTEDTAVYYCRYVHYGAYYGVDAWGQGTTVTVSS
VL: DIVMTQSPLSLPVTPGEPASISCRSSQSLVHSGRNTYLHWYQQKPGQAPRLLIYKVSNRFSGVPDRFSGSGSGTDFTLKISRVEAEDVGVYYCGQGTQVPYTFGQGTKLEIK
notes: one-arm IgG1
B5: CE115HA000/GLS3000 N28K (antibody, IgG1, name in Kabat numbering, V domains shown)
VH: QVQLVESGGGVVQPGRSLRLSCAASGFTFSNAWMHWVRQAPGKGLEWVAQIKAKSNNYATYYAESVKGRFTISRDDSKNSLYLQMNSLKTEDTAVYYCRYVHYGAYYGVDAWGQGTTVTVSS
VL: DIVMTQSPLSLPVTPGEPASISCRSSQSLVHSKRNTYLHWYQQKPGQAPRLLIYKVSNRFSGVPDRFSGSGSGTDFTLKISRVEAEDVGVYYCGQGTQVPYTFGQGTKLEIK
notes: one-arm IgG1
B6: CE115HA000/GLS3000 N28M (antibody, IgG1, name in Kabat numbering, V domains shown)
VH: QVQLVESGGGVVQPGRSLRLSCAASGFTFSNAWMHWVRQAPGKGLEWVAQIKAKSNNYATYYAESVKGRFTISRDDSKNSLYLQMNSLKTEDTAVYYCRYVHYGAYYGVDAWGQGTTVTVSS
VL: DIVMTQSPLSLPVTPGEPASISCRSSQSLVHSMRNTYLHWYQQKPGQAPRLLIYKVSNRFSGVPDRFSGSGSGTDFTLKISRVEAEDVGVYYCGQGTQVPYTFGQGTKLEIK
notes: one-arm IgG1
B7: CE115HA000/GLS3000 N28H (antibody, IgG1, name in Kabat numbering, V domains shown)
VH: QVQLVESGGGVVQPGRSLRLSCAASGFTFSNAWMHWVRQAPGKGLEWVAQIKAKSNNYATYYAESVKGRFTISRDDSKNSLYLQMNSLKTEDTAVYYCRYVHYGAYYGVDAWGQGTTVTVSS
VL: DIVMTQSPLSLPVTPGEPASISCRSSQSLVHSHRNTYLHWYQQKPGQAPRLLIYKVSNRFSGVPDRFSGSGSGTDFTLKISRVEAEDVGVYYCGQGTQVPYTFGQGTKLEIK
notes: one-arm IgG1
B8: CE115HA000/GLS3000 N28I (antibody, IgG1, name in Kabat numbering, V domains shown)
VH: QVQLVESGGGVVQPGRSLRLSCAASGFTFSNAWMHWVRQAPGKGLEWVAQIKAKSNNYATYYAESVKGRFTISRDDSKNSLYLQMNSLKTEDTAVYYCRYVHYGAYYGVDAWGQGTTVTVSS
VL: DIVMTQSPLSLPVTPGEPASISCRSSQSLVHSIRNTYLHWYQQKPGQAPRLLIYKVSNRFSGVPDRFSGSGSGTDFTLKISRVEAEDVGVYYCGQGTQVPYTFGQGTKLEIK
notes: one-arm IgG1

Biological target: T1, CD3 epsilon homodimer protein (UniProt P07766 23-126)
T1 construct: also called CD3 (CD3 epsilon)
Test: SPR, antibody over immobilised CD3e homodimer;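 note: SPR at 25 °C with CD3 epsilon homodimer amine-coupled to a CM4 sensor chip and antibody flowed over as analyte in HBS-EP+ running buffer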

T1 sequence (P07766 23-126): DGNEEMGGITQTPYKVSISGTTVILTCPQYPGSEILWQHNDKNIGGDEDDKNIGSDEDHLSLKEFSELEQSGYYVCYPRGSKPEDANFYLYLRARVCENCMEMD

**Q.** B1 was tested. Which “KD ratio to GLS3000” value did it give?
**A.** 5.47

**Q.** B2 was tested. Which “KD ratio to GLS3000” value did it give?
**A.** 2.59

**Q.** How did the “KD ratio to GLS3000” value turn out when B3 was run?
**A.** 3.34

**Q.** B4 was tested. Which “KD ratio to GLS3000” value did it give?
**A.** 2.41

**Q.** How did the “KD ratio to GLS3000” value turn out when B5 was run?
**A.** 2.34

**Q.** How did the “KD ratio to GLS3000” value turn out when B6 was run?
**A.** 3.29

**Q.** For B7, which “KD ratio to GLS3000” value is on record?
**A.** 3

**Q.** B8 was tested. Which “KD ratio to GLS3000” value did it give?
**A.** 2.81
